Results on 140 substances are retold here after the supplement of paper PMC12042874.

± gives the uncertainty stated by the source.

The data set in a line: amyloid nucleation score (Sup35N fusion, yeast selection) (log enrichment); library NNK2; higher = more nucleation; inactive = no reads after selection. The procedure, abridged:
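After 24 hours of induction with 100 μM copper sulfate, psi-negative yeast expressing peptides of 20 random codons fused to Sup35N were grown for 7 days at 30°C on medium lacking adenine and uracil. Input and output plasmid inserts were sequenced with Illumina, and sequences with under 100 input reads were discarded. Scores for nucleation are the DiMSum log enrichment of output over input reads, centred on the mode score of non-aggregating sequences.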
Regarding CLPGTCRRCQWGRGIDQSSE, the amyloid nucleation score is 0.317 ± 0.41. Take NSMNVGSFRSSEWLVLFENV: the amyloid nucleation score was -0.453 ± 1.1. RWLDSERRTTRHLCSRGYST registered an amyloid nucleation score of 1.24 ± 0.38. AYYYWLGG: the amyloid nucleation score is -0.381 ± 1.1. Consider MKGFELSLLVMRHSLELYRI, for which the amyloid nucleation score worked out at 0.463 ± 0.65. The same measure for AFYWVWDLDSGICNVSIFRL: -0.995 ± 0.34; for LRSWSLAMRGDIMGTVRWLR: 0.413 ± 0.56.

Substance GAHFYRTVMNVRSTLSRYIN showed an amyloid nucleation score of -0.507 ± 0.48.

In turn, PTCGNSPMVRWCSAETFVWG returned an amyloid nucleation score of 3.04 ± 0.13. Substance YMYPWGP came in with an amyloid nucleation score of 0.693 ± 0.28. In turn, VDANIHWTCNSG had an amyloid nucleation score of 0.322 ± 0.38. In the case of IKIIPPLKLLCVLGWHSRGA, the amyloid nucleation score amounted to 1.35 ± 0.19. The same measure for MSLSNDHSGAVWRRAFGYSE: 0.51 ± 0.51; for GMVEAR: 0.095 ± 0.46. For the substance PAFVYHFYQYNLTICYGYLG, the amyloid nucleation score was -0.313 ± 0.5. The substance IVQKFCVASCGLEHYVF registered an amyloid nucleation score of 6.07 ± 0.073. For RCDLWLSYCQPLNVFLYWLV, the amyloid nucleation score is 0.313 ± 0.65. The same measure for SVLGTKVRVYRSGWTLRIFE: -0.456 ± 0.37; for RVMGCVMGIRGWRIRIGNSG: 1.42 ± 0.47; for NCIFDMLLVLR: “inactive”. Consider DFMFFVYPSNSMLKGISRGR, for which the amyloid nucleation score is -1.77 ± 0.48. Turning to VCYRSKASILLYGTPGGVRV, the amyloid nucleation score was -0.184 ± 1.1.

With FSECLKTTENMKITQKGTPV, the amyloid nucleation score is 0.459 ± 0.54. As for GEPSCATCITVCLVLLSTQM, the amyloid nucleation score turned out to be 6.48 ± 0.081.

In turn, FRRQSPNMQPSCWTDHGLRG displayed an amyloid nucleation score of -0.105 ± 1.1.

Turning to ILVSFYRDSS, the amyloid nucleation score was found to be 0.416 ± 0.44. In turn, ILSSFMQ registered an amyloid nucleation score of -0.2 ± 0.41. YKYMGLFSSIFNVLGSLISY: the amyloid nucleation score was -1.95 ± 1.1. As for PDGSASIGGYYGQFLL, the amyloid nucleation score was -0.746 ± 0.62. ALSNGNVLHGLSMLSYMHCW: the amyloid nucleation score is -0.388 ± 1.1.

Consider HWSADDNFSSLQRLFVYMGR, for which the amyloid nucleation score was 4.583 ± 0.043. In turn, MWLSPRVVVFCRLIFHLLVG had an amyloid nucleation score of -0.567 ± 1.1. The result for MAGVTPLELLCGPNQFALMR reads 1.95 ± 0.48; that for TGYVE, 0.293 ± 0.26; that for QYGHCAPDFGSTLLGISST, -0.601 ± 0.39. With GDVLPNTSTGIFFSQPIMCA, the amyloid nucleation score was 0.501 ± 0.43.

On to WNINRIPFKVRWRAIFHMYH, for which the amyloid nucleation score was -1.25 ± 0.37. With LCPVLYT, the amyloid nucleation score entry is “inactive”. Regarding LFECMPYGLNAKDSCADSNV, the amyloid nucleation score is -0.303 ± 0.5.

In the case of FLMACPMFIIVYLCRT, the amyloid nucleation score entry was “inactive”.

As for YMSGILASIRKSILQGRSRE, the amyloid nucleation score is -1.41 ± 0.49. With NLMVHVFAAVMGINDLKC, the amyloid nucleation score stood at 1.41 ± 0.18. KSRLGCTWSGAHQSIRPLRR showed an amyloid nucleation score of 1.22 ± 0.41. The same measure for FLIFTTLLYCMVDMHAGTTF: -1.77 ± 0.78; for VVVSRTITLSTSYEFYIVKY: 0.798 ± 0.32. The result for YNLCWCRVIDFCLCWYCILW reads 4.94 ± 0.081; that for LLTCTYMQF, -0.124 ± 0.54. The substance RSHGSQGMKSR came in with an amyloid nucleation score of 1.12 ± 0.34.

Substance ITIRCGSKDSFMNIGLGKMG displayed an amyloid nucleation score of 4.09 ± 0.11. The result for SMRSIREEAVFVLIVVLRGR reads 0.261 ± 0.43; that for MCTGVPINGFWVCPYDQSGK, 0.108 ± 0.33; that for HTFYVNKLPLPKL, 0.875 ± 0.45.

Turning to LVYESSDYFVNIIEDNLLVS, the amyloid nucleation score entry is “inactive”. Turning to HQRLTRVLYWKVDIGQVCGI, the amyloid nucleation score is 4.99 ± 0.065. VGKMVNVDGRSPSCWSVWH returned an amyloid nucleation score of 0.47 ± 0.13. For the substance FIINKHSFQRGLFMVSLVSI, the amyloid nucleation score entry was “inactive”. The result for PIFLFQRYPLLGLWLKKACD reads “inactive”; that for NPRTQF, -0.108 ± 0.28; that for RVDTYYQNL, 5.21 ± 0.059.

Substance KFNFS showed an amyloid nucleation score of -0.908 ± 0.44. In turn, FMVVC registered an amyloid nucleation score of 0.249 ± 0.39. The substance SYDFSSINRDKTSSSRSLPR returned an amyloid nucleation score of -0.474 ± 1.

Take VLAARVTTYHLCVSEDVVTL: the amyloid nucleation score was 2.9 ± 0.15. VRWAKNNRMTLYLKITLRAK came in with an amyloid nucleation score of -0.951 ± 0.37. The substance VNVYMYNYLLKHITKDRRST registered an amyloid nucleation score of 8.16 ± 0.031. The substance GTPRFEVNIMFHTVDS displayed an amyloid nucleation score of 1.57 ± 0.22. The same measure for NCLEIQFWRLSSRYVGKFVM: -0.113 ± 0.32; for LSRQFRRYLMLSLFYFVLLP: -1.21 ± 0.38; for VWHVDTAVLTRA: 1.08 ± 0.41.

VKNFYVNIFQCGIPPPFKEM gave an amyloid nucleation score of 7.668 ± 0.026. In turn, GRAPLSNNLMDSVTVESVHM came in with an amyloid nucleation score of -0.744 ± 0.28.

Take WLCVRNVLMCQW: the amyloid nucleation score was 7.037 ± 0.042.

The substance FKCPFSNFFAMDGYY had an amyloid nucleation score of -0.801 ± 0.55. The result for CFSHYHDSFLPGWYYSGNYV reads -0.788 ± 0.4; that for RNYHIQYIAVRVLIPASA, 5 ± 0.068. Turning to NIVLTLSRGF, the amyloid nucleation score amounted to 2.56 ± 0.1. Substance ILIVVMCFHSNNKSRDNRIY yielded an amyloid nucleation score of -1.46 ± 1. The result for KYHRI reads -0.721 ± 0.74; that for DVREFSSDYSQVGVEVLVFL, 0.373 ± 0.42; that for AWKMVMRLDARPLARFWGDG, 5.34 ± 0.092. In turn, WSYRTESIHLYYLRPIFKIV showed an amyloid nucleation score of -1.11 ± 0.54.

The substance FFLDYRENISAMLPTTR returned an amyloid nucleation score of -0.833 ± 1.1. Take FCKHFYVLREHIKWADSFLM: the amyloid nucleation score result is “inactive”.

TLNVRIAS gave an amyloid nucleation score of -0.124 ± 0.62. EARILIKLLI: the amyloid nucleation score turned out to be 2.58 ± 0.091. On to CFESHWCRYPLDGRLGHKEF, for which the amyloid nucleation score result is “inactive”.

For the substance DMGGPTTIY, the amyloid nucleation score is 0.798 ± 0.67. On to MTKCTDHVRVDDVCLHIRGS, for which the amyloid nucleation score was -0.255 ± 1.1. Regarding FRNNKLYIRVYRSKWTE, the amyloid nucleation score was -1.22 ± 1.1.

LYDWRWSWSRSATSSFGWLT showed an amyloid nucleation score of 0.296 ± 0.49. Substance SVFMFCVSEL had an amyloid nucleation score of -0.049 ± 0.63. Consider FQDLDLVHRLHSVSVNLETE, for which the amyloid nucleation score is 0.123 ± 1.

SAYGVVSSWMR showed an amyloid nucleation score of -0.266 ± 0.55. Substance YDSWLDTVVFDFFCLCLDKA came in with an amyloid nucleation score of -1.42 ± 0.75. LFNSAVLK showed an amyloid nucleation score of -0.092 ± 0.33. Take FCPLLPVRFHV: the amyloid nucleation score is -0.533 ± 0.61. Regarding TGLGLIGLHSLVKVSRV, the amyloid nucleation score is -0.255 ± 0.65. In turn, FDSSSESLGKGKCY yielded an amyloid nucleation score of 0.225 ± 0.49. KDHSMSELYGGICVRCYKLI had an amyloid nucleation score of -0.378 ± 1. SYFGDFERFSFSCDHER had an amyloid nucleation score of -0.471 ± 0.61. Consider PKSLCYSTLTRGWCQM, for which the amyloid nucleation score is -0.418 ± 1.

Take SCLLYCYSNSWFFIFNQR: the amyloid nucleation score was -0.979 ± 1. The same measure for VEMSEDEPCLWYGSLIPGTR: 2.83 ± 0.18. As for SVLTLTSIIYLGSCKFLNFM, the amyloid nucleation score was 6.241 ± 0.032. Regarding IIWQPHSPCVRVYTCLSLIF, the amyloid nucleation score is -1.67 ± 0.53.

As to VPPSLLYLQTRDSPPEERMM, the amyloid nucleation score amounted to 0.374 ± 0.64.

As to FLSSYVFLCWCSLVSWGGTW, the amyloid nucleation score amounted to 1.03 ± 0.66. Turning to AAVFMLQRLDFINRMASASF, the amyloid nucleation score is 3.72 ± 0.055.

SLVENRVGISDVWKVSTLVG came in with an amyloid nucleation score of 0.042 ± 0.29. SSRWQFYGHF: the amyloid nucleation score was 0.518 ± 0.26.

As to FLHVSRDLPYYYCFLV, the amyloid nucleation score is -0.703 ± 0.74. The result for RSFHVEYILM reads 3.23 ± 0.068. DMLVCNGLFVFRASKGTIDA: the amyloid nucleation score is -0.837 ± 1.1.

YRGYAPIYLHLRSSYVPVAL returned an amyloid nucleation score of -0.319 ± 0.35. QWNMRAAQCTTNS: the amyloid nucleation score was 0.722 ± 0.34. As for DVLLVLHVIWCICYPLGVVS, the amyloid nucleation score turned out to be 0.429 ± 0.4. The substance LASFGLRGVRQCQMNAE yielded an amyloid nucleation score of 1.78 ± 0.15.

PSFILIFNGCKWVPYASKCG returned an amyloid nucleation score of 8.916 ± 0.021. For WTPVDVLCMIGMRSVCYINM, the amyloid nucleation score was 1.79 ± 0.1. The substance GWRLTRDRVG registered an amyloid nucleation score of 1.31 ± 0.18.

On to SAFDKASERLCSESVYKGKN, for which the amyloid nucleation score stood at 1.7 ± 0.099. The substance MIERMSNRGMACLFVETRSG returned an amyloid nucleation score of -0.149 ± 0.76.

TIYPDMETHLV had an amyloid nucleation score of -0.075 ± 0.49. VNAHLWYIFRVWDVKDRVVD displayed an amyloid nucleation score of -0.315 ± 0.74. The same measure for CARVMLFIMSEMIEFTFYGL: 2.89 ± 0.14. QACRSTGNSFVLNRYMKERT showed an amyloid nucleation score of 0.215 ± 0.24. The result for PACYKDYGSKSPHPPTVGLG reads -0.159 ± 0.76; that for GGQDDVIGLRKSVMAENRVH, 0.537 ± 0.42. DFGVWFFFYTHQLSA displayed an amyloid nucleation score of -0.113 ± 1.1. Turning to AYSGIFTRNAEVYSDIYLQ, the amyloid nucleation score is -0.499 ± 0.76. Take DLSRLCVGHAVI: the amyloid nucleation score is 0.446 ± 0.18. On to CSMFSKLMVNSGLSSVLTVM, for which the amyloid nucleation score amounted to 0.047 ± 0.28. Substance LIYRCN returned an amyloid nucleation score of -0.673 ± 1. In the case of HVAEEVMGIVARVRVLMILS, the amyloid nucleation score is -0.598 ± 0.45. The substance CNYMSVWN came in with an amyloid nucleation score of -0.021 ± 0.74. As for VLILDVVYSLDESEVSVVWY, the amyloid nucleation score is -0.429 ± 0.42. As to YKVYPWLFIYLLLLDRAD, the amyloid nucleation score is -1.45 ± 0.73. Take NNIVIYDDLYNSMMALLWS: the amyloid nucleation score was -1.25 ± 0.64. KGLAREVRCSQYTTVIFVDR: the amyloid nucleation score is 5.273 ± 0.043. The substance NFNFNCA had an amyloid nucleation score of 3.87 ± 0.093.
